# According to US7056679 (ANTYRA, dated 2006):
# T1: DGI-2 polypeptide (UniProt Q15004 1-111, limits assumed)
# T1 construct: Vector-derived residues or tag of pIVEX2.3 are not described for this construct; also called KIAA0101
# T1 sequence (looked up): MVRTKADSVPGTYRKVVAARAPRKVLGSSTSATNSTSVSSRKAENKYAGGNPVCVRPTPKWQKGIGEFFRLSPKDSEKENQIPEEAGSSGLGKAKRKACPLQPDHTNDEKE
# B1: DGI-2-20R-4-G6 (peptide)
# peptide: PAMGHCMQVLGPVLEGRSRDQVGRAAAGAPVPYPDPLEPRP
# notes: not shown: phage gene III coat protein (pCANTAB5E)
# B2: DGI-2-20R-4-G32 (peptide)
# peptide: LSVFRPGQFPHVGARGVSRTAAAGAPVPYPDPLEPRP
# notes: as for B1
# B3: DGI-2-40F-3-C7 (peptide)
# peptide: HPWVTNMLVFQRPPPPGFWLSDTTPRQRNGLGQVERPSVDAAAGAPVPYPDPLEPRP
# notes: as for B1
# B4: DGI-2-20C-3-D12 (peptide)
# peptide: LVIQCSASVVACDLYWNYVGCLAAGAAAGAPVPYPDPLEPRP
# notes: as for B1
# B5: DGI-2-20F-3-B1 (peptide)
# peptide: LSRIWRGVIESAREVESRGIAAAGAPVPYPDPLEPRP
# notes: as for B1
# B6: DGI-2-20F-3-C3 (peptide)
# peptide: FSSVLGLLDRRGVPVVVGEDAAAGAPVPYPDPLEPRP
# notes: as for B1
# B7: DGI-2-40F-3-C52 (peptide)
# peptide: GLLFTSSPYQCFWVHCTLTMSPLSVLGDLSSTIGRMRASRAAAGAPVPYPDPLEPRP
# notes: as for B1
# B8: DGI-2-40F-3-A24 (peptide)
# peptide: RCFQDGRMLALSPTYLIRRSVSPLVVGPLPTPAAAGAPVPYPDPLEPRP
# notes: as for B1
# B9: DGI-2-40F-3-B122 (peptide)
# peptide: HSGNRQSGSRRTHLLNIFCSSDTFVFPGWSAYLSRVCPGDAAAGAPVPYPDPLEPRP
# notes: as for B1
# B10: DGI-2-40F-3-B4 (peptide)
# peptide: LWLPCGLLVRPAQFYFYFSPLRHFLSSSVGSLSFPLSLLVAAAGAPVPYPDPLEPRP
# notes: as for B1
# B11: DGI-2-20R-3-D5 (peptide)
# peptide: VAFGEQIRVAMAGTLWQRWRAAAGAPVPYPDPLEPRP
# notes: as for B1
# B12: DGI-2-20R-4-E4 (peptide)
# peptide: LTWGPQFGSLQVYSRHRGLPAAAGAPVPYPDPLEPRP
# notes: as for B1
# B13: DGI-2-40F-3-D9 (peptide)
# peptide: RRTSADTDQLSRWEGAQAFSSLRSALSERLDSLRPGLPPSAAAGAPVPYPDPLEPRP
# notes: as for B1
# B14: DGL-2-40F-3-D10 (peptide)
# peptide: TLVTEGNKGSVKAHKDIGVWQLWWDWLSVTDSETVGRVSHAAAGAPVPYPDPLEPRP
# notes: as for B1
# B15: DGI-2-20F-3-C2 (peptide)
# peptide: MAVLPAARDFGGVVQGGVSGAAAGAPVPYPDPLEPRP
# notes: as for B1
# B16: DGI-2-40F-3-B10 (peptide)
# peptide: MQAASTLSTYMGAIRMGYPILHWDRGGVQRVDPGLYRGRVAAAGAPVPYPDPLEPRP
# notes: as for B1
# B17: DGI-2-20F-3-A6 (peptide)
# peptide: FSSTGILLRSGRATAVGHVTAAAGAPVPYPDPLEPRP
# notes: as for B1
# B18: DGI-2-20R-4-E5 (peptide)
# peptide: LHRLGQSMGGTLDHLQGWGVAAAGAPVPYPDPLEPRP
# notes: as for B1
# B19: DGI-2-20R-4-G8 (peptide)
# peptide: GMWIRPNGHMFLQGGYTARSAAAGAPVPYPDPLEPRP
# notes: as for B1
# B20: DGI-2-40F-3-B116 (peptide)
# peptide: GVVRAQQGLRYELQGDRYRLRRTQWLTVTYCSPSWAFAGCAAAGAPVPYPDPLEPRP
# notes: as for B1
# B21: DGI-2-20R-3-C12 (peptide)
# peptide: RWSLPAYLCRFVSQASCNSRAAAGAPVPYPDPLEPRP
# notes: as for B1
# B22: DGI-2-20F-3-B7 (peptide)
# peptide: WAGSTDLWQLWSLWVKPELRAAAGAPVPYPDPLEPRP
# notes: as for B1
# B23: DGI-2-40F-3-B5 (peptide)
# peptide: RSRSSSGASGSMLRVQNHMVLGSWMVRQPMGSMTPFHGHGAAAGAPVPYPDPLEPRP
# notes: as for B1
# B24: DGI-2-40F-3-B95 (peptide)
# peptide: DYKTCVSQHVHPLFGEYFYHKVTHMSILSPTFRVTSLYGKAAAGAPVPYPDPLEPRP
# notes: as for B1
# B25: DGI-2-20F-3-D112 (peptide)
# peptide: YDQVWNSLLAAVLGGQELVNAAAGAPVPYPDPLEPRP
# notes: as for B1
# B26: DGI-2-40F-3-B72 (peptide)
# peptide: PKDGAAFKGSDFIQGGQTVMERAPALWWRDGGGQWEAPSTAAAGAPVPYPDPLEPRP
# notes: as for B1
# Experiments:
# [1] = target: T1, DGI-2 polypeptide; test: phage ELISA, 405 nm; DGI-2 coated
# Method: (§1) For analysis of individual target binders, colonies were picked and phage prepared as described above using helper phage, M13KO7. Ninety-six-well microtiter plates were coated with 500 ng/well of specific target protein, 500 ng/well lactate dehydrogenase (LDH) irrelevant or non-specific target, 500 ng/well of positive control antibody raised against ETAG, and negative control of non-fat milk powder-PBS 2% at 4° C. overnight. Plates were then blocked with 350 microliters/well PBS containing 2% non-fat milk for 1 hr at room temperature. One hundred microliters per well of phage from isolated clones were added and plates were incubated at room temperature for 2 hr after centrifuging samples for 20 minutes at 3500 rpm at 4° C. The phage solution was then removed, and the wells were washed three times with PBS at room temperature. Antibody raised against M13 conjugated to horseradish peroxidase (Pharmacia) was diluted 1:3000 in PBS-Tween and added to each well (100 µl/well). Incubation was for 1 hr at room temperature, followed by washing with PBS-(0.5%) Tween 3 times as described. Color was developed by addition of ABTS solution (100 µl/well; Boehringer, Indianapolis, Ind.). Plates were analyzed at 405 nm. A clone was considered "positive" if the $A405$ of the well was $\geq$2-fold over background.
# [2] = target: T2, antibody raised against ETAG; test: phage ELISA, 405 nm; anti-E-tag antibody coated
# T2 construct: read-out of display; also called E-tag antibody; E tag antibody
# Method: as §1
# [3] = target: T1, DGI-2 polypeptide; test: phage ELISA, 405 nm; DGI-2 signal over LDH signal
# Method: as §1
Binder,DGI-2 (OD) [1] [OD],ETAG (OD) [2] [OD],DGI-2/LDH (OD) [3] [ratio]
B1,1.6,11.5,1.4
B2,1.4,11,1.2
B3,1.2,8.8,1.5
B4,1.1,3.6,1.1
B5,1.2,11.4,1.2
B6,1.1,11.6,1.1
B7,1,4.6,1.3
B8,1.3,11.7,1.4
B9,1.7,11,2.2
B10,1,1.5,1.1
B11,1.5,8.5,1.4
B12,1.6,18.1,1.3
B13,1.1,15.8,1.4
B14,1.5,10.3,1.7
B15,1.3,11.5,1.3
B16,1.3,4.8,1.4
B17,1.5,13.2,1.4
B18,1.2,17.9,1.1
B19,1.5,14.5,1.4
B20,1.7,6.5,2
B21,1.6,14.6,1.6
B22,1.6,16.4,1.6
B23,1,9.2,1.2
B24,1,5.4,1.2
B25,1.4,19.9,1.4
B26,1,10.4,1.3
